The chains are these.
T1: human glucose-dependent insulinotropic peptide (gastric inhibitory polypeptide) receptor (human) (UniProt P48546)
T1 sequence (looked up): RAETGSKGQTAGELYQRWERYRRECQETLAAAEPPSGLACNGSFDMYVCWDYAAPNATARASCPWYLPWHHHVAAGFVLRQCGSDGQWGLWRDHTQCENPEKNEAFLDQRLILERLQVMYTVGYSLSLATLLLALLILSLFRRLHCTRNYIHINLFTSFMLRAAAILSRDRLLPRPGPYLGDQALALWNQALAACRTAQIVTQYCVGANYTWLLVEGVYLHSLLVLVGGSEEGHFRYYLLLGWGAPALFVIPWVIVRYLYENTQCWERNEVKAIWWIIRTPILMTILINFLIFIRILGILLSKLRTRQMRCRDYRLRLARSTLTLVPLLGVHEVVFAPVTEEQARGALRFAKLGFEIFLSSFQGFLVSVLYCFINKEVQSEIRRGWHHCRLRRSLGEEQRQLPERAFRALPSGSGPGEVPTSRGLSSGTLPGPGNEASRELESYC

B1: g835 (peptide)
peptide: HSQGTFTSDYSEYLDSK([γGlu-Palmitoyl])RARDFVEWLVAGG-NH2
modifications: N-terminus assumed
SMILES: CCCCCCCCCCCCCCCC(=O)N[C@@H](CCC(=O)NCCCC[C@H](NC(=O)[C@H](CO)NC(=O)[C@H](CC(=O)O)NC(=O)[C@H](CC(C)C)NC(=O)[C@H](Cc1ccc(O)cc1)NC(=O)[C@H](CCC(=O)O)NC(=O)[C@H](CO)NC(=O)[C@H](Cc1ccc(O)cc1)NC(=O)[C@H](CC(=O)O)NC(=O)[C@H](CO)NC(=O)[C@@H](NC(=O)[C@H](Cc1ccccc1)NC(=O)[C@@H](NC(=O)CNC(=O)[C@H](CCC(N)=O)NC(=O)[C@H](CO)NC(=O)[C@@H](N)Cc1c[nH]cn1)[C@@H](C)O)[C@@H](C)O)C(=O)N[C@@H](CCCNC(=N)N)C(=O)N[C@@H](C)C(=O)N[C@@H](CCCNC(=N)N)C(=O)N[C@@H](CC(=O)O)C(=O)N[C@@H](Cc1ccccc1)C(=O)N[C@H](C(=O)N[C@@H](CCC(=O)O)C(=O)N[C@@H](Cc1c[nH]c2ccccc12)C(=O)N[C@@H](CC(C)C)C(=O)N[C@H](C(=O)N[C@@H](C)C(=O)NCC(=O)NCC(N)=O)C(C)C)C(C)C)C(=O)O
B2: g600 (peptide)
peptide: HSQGTFTSDYSKYLDSK([γGlu-Palmitoyl])RAQDFVEWLVAGG-NH2
modifications: N-terminus assumed
SMILES: CCCCCCCCCCCCCCCC(=O)N[C@@H](CCC(=O)NCCCC[C@H](NC(=O)[C@H](CO)NC(=O)[C@H](CC(=O)O)NC(=O)[C@H](CC(C)C)NC(=O)[C@H](Cc1ccc(O)cc1)NC(=O)[C@H](CCCCN)NC(=O)[C@H](CO)NC(=O)[C@H](Cc1ccc(O)cc1)NC(=O)[C@H](CC(=O)O)NC(=O)[C@H](CO)NC(=O)[C@@H](NC(=O)[C@H](Cc1ccccc1)NC(=O)[C@@H](NC(=O)CNC(=O)[C@H](CCC(N)=O)NC(=O)[C@H](CO)NC(=O)[C@@H](N)Cc1c[nH]cn1)[C@@H](C)O)[C@@H](C)O)C(=O)N[C@@H](CCCNC(=N)N)C(=O)N[C@@H](C)C(=O)N[C@@H](CCC(N)=O)C(=O)N[C@@H](CC(=O)O)C(=O)N[C@@H](Cc1ccccc1)C(=O)N[C@H](C(=O)N[C@@H](CCC(=O)O)C(=O)N[C@@H](Cc1c[nH]c2ccccc12)C(=O)N[C@@H](CC(C)C)C(=O)N[C@H](C(=O)N[C@@H](C)C(=O)NCC(=O)NCC(N)=O)C(C)C)C(C)C)C(=O)O
B3: g660 (peptide)
peptide: HGQGTFTSDYSKYLDSK([γGlu-Palmitoyl])RARDFVEWLVAGG-NH2
modifications: N-terminus assumed
SMILES: CCCCCCCCCCCCCCCC(=O)N[C@@H](CCC(=O)NCCCC[C@H](NC(=O)[C@H](CO)NC(=O)[C@H](CC(=O)O)NC(=O)[C@H](CC(C)C)NC(=O)[C@H](Cc1ccc(O)cc1)NC(=O)[C@H](CCCCN)NC(=O)[C@H](CO)NC(=O)[C@H](Cc1ccc(O)cc1)NC(=O)[C@H](CC(=O)O)NC(=O)[C@H](CO)NC(=O)[C@@H](NC(=O)[C@H](Cc1ccccc1)NC(=O)[C@@H](NC(=O)CNC(=O)[C@H](CCC(N)=O)NC(=O)CNC(=O)[C@@H](N)Cc1c[nH]cn1)[C@@H](C)O)[C@@H](C)O)C(=O)N[C@@H](CCCNC(=N)N)C(=O)N[C@@H](C)C(=O)N[C@@H](CCCNC(=N)N)C(=O)N[C@@H](CC(=O)O)C(=O)N[C@@H](Cc1ccccc1)C(=O)N[C@H](C(=O)N[C@@H](CCC(=O)O)C(=O)N[C@@H](Cc1c[nH]c2ccccc12)C(=O)N[C@@H](CC(C)C)C(=O)N[C@H](C(=O)N[C@@H](C)C(=O)NCC(=O)NCC(N)=O)C(C)C)C(C)C)C(=O)O
B4: g681 (peptide)
peptide: HGEGTFTSDYSKYLDSK([γGlu-Palmitoyl])RAEDFVEWLVAGG-NH2
modifications: N-terminus assumed
SMILES: CCCCCCCCCCCCCCCC(=O)N[C@@H](CCC(=O)NCCCC[C@H](NC(=O)[C@H](CO)NC(=O)[C@H](CC(=O)O)NC(=O)[C@H](CC(C)C)NC(=O)[C@H](Cc1ccc(O)cc1)NC(=O)[C@H](CCCCN)NC(=O)[C@H](CO)NC(=O)[C@H](Cc1ccc(O)cc1)NC(=O)[C@H](CC(=O)O)NC(=O)[C@H](CO)NC(=O)[C@@H](NC(=O)[C@H](Cc1ccccc1)NC(=O)[C@@H](NC(=O)CNC(=O)[C@H](CCC(=O)O)NC(=O)CNC(=O)[C@@H](N)Cc1c[nH]cn1)[C@@H](C)O)[C@@H](C)O)C(=O)N[C@@H](CCCNC(=N)N)C(=O)N[C@@H](C)C(=O)N[C@@H](CCC(=O)O)C(=O)N[C@@H](CC(=O)O)C(=O)N[C@@H](Cc1ccccc1)C(=O)N[C@H](C(=O)N[C@@H](CCC(=O)O)C(=O)N[C@@H](Cc1c[nH]c2ccccc12)C(=O)N[C@@H](CC(C)C)C(=O)N[C@H](C(=O)N[C@@H](C)C(=O)NCC(=O)NCC(N)=O)C(C)C)C(C)C)C(=O)O
B5: g639 (peptide)
peptide: HSEGTFTSDYSKYLDSK([γGlu-Palmitoyl])RAEDFVEWLVAGG-NH2
modifications: N-terminus assumed
SMILES: CCCCCCCCCCCCCCCC(=O)N[C@@H](CCC(=O)NCCCC[C@H](NC(=O)[C@H](CO)NC(=O)[C@H](CC(=O)O)NC(=O)[C@H](CC(C)C)NC(=O)[C@H](Cc1ccc(O)cc1)NC(=O)[C@H](CCCCN)NC(=O)[C@H](CO)NC(=O)[C@H](Cc1ccc(O)cc1)NC(=O)[C@H](CC(=O)O)NC(=O)[C@H](CO)NC(=O)[C@@H](NC(=O)[C@H](Cc1ccccc1)NC(=O)[C@@H](NC(=O)CNC(=O)[C@H](CCC(=O)O)NC(=O)[C@H](CO)NC(=O)[C@@H](N)Cc1c[nH]cn1)[C@@H](C)O)[C@@H](C)O)C(=O)N[C@@H](CCCNC(=N)N)C(=O)N[C@@H](C)C(=O)N[C@@H](CCC(=O)O)C(=O)N[C@@H](CC(=O)O)C(=O)N[C@@H](Cc1ccccc1)C(=O)N[C@H](C(=O)N[C@@H](CCC(=O)O)C(=O)N[C@@H](Cc1c[nH]c2ccccc12)C(=O)N[C@@H](CC(C)C)C(=O)N[C@H](C(=O)N[C@@H](C)C(=O)NCC(=O)NCC(N)=O)C(C)C)C(C)C)C(=O)O
B6: g680 (peptide)
peptide: HGQGTFTSDYSKYLDSK([γGlu-Palmitoyl])RAEDFVEWLVAGG-NH2
modifications: N-terminus assumed
SMILES: CCCCCCCCCCCCCCCC(=O)N[C@@H](CCC(=O)NCCCC[C@H](NC(=O)[C@H](CO)NC(=O)[C@H](CC(=O)O)NC(=O)[C@H](CC(C)C)NC(=O)[C@H](Cc1ccc(O)cc1)NC(=O)[C@H](CCCCN)NC(=O)[C@H](CO)NC(=O)[C@H](Cc1ccc(O)cc1)NC(=O)[C@H](CC(=O)O)NC(=O)[C@H](CO)NC(=O)[C@@H](NC(=O)[C@H](Cc1ccccc1)NC(=O)[C@@H](NC(=O)CNC(=O)[C@H](CCC(N)=O)NC(=O)CNC(=O)[C@@H](N)Cc1c[nH]cn1)[C@@H](C)O)[C@@H](C)O)C(=O)N[C@@H](CCCNC(=N)N)C(=O)N[C@@H](C)C(=O)N[C@@H](CCC(=O)O)C(=O)N[C@@H](CC(=O)O)C(=O)N[C@@H](Cc1ccccc1)C(=O)N[C@H](C(=O)N[C@@H](CCC(=O)O)C(=O)N[C@@H](Cc1c[nH]c2ccccc12)C(=O)N[C@@H](CC(C)C)C(=O)N[C@H](C(=O)N[C@@H](C)C(=O)NCC(=O)NCC(N)=O)C(C)C)C(C)C)C(=O)O
B7: g776 (peptide)
peptide: HSQGTFTSDYSKYLDSK([γGlu-Palmitoyl])RARDFVEWLVAGG-NH2
modifications: N-terminus assumed
SMILES: CCCCCCCCCCCCCCCC(=O)N[C@@H](CCC(=O)NCCCC[C@H](NC(=O)[C@H](CO)NC(=O)[C@H](CC(=O)O)NC(=O)[C@H](CC(C)C)NC(=O)[C@H](Cc1ccc(O)cc1)NC(=O)[C@H](CCCCN)NC(=O)[C@H](CO)NC(=O)[C@H](Cc1ccc(O)cc1)NC(=O)[C@H](CC(=O)O)NC(=O)[C@H](CO)NC(=O)[C@@H](NC(=O)[C@H](Cc1ccccc1)NC(=O)[C@@H](NC(=O)CNC(=O)[C@H](CCC(N)=O)NC(=O)[C@H](CO)NC(=O)[C@@H](N)Cc1c[nH]cn1)[C@@H](C)O)[C@@H](C)O)C(=O)N[C@@H](CCCNC(=N)N)C(=O)N[C@@H](C)C(=O)N[C@@H](CCCNC(=N)N)C(=O)N[C@@H](CC(=O)O)C(=O)N[C@@H](Cc1ccccc1)C(=O)N[C@H](C(=O)N[C@@H](CCC(=O)O)C(=O)N[C@@H](Cc1c[nH]c2ccccc12)C(=O)N[C@@H](CC(C)C)C(=O)N[C@H](C(=O)N[C@@H](C)C(=O)NCC(=O)NCC(N)=O)C(C)C)C(C)C)C(=O)O

Where “and” joins values, the source holds several entries; their conditions need not be identical. Equal entries are not always repeated. Numbered stars: 1 amine (or outer) side, 2 acyl side, 3 side chain; on linkers, the order of the positions; unused ones are H or OH. Side chains are listed from the residue outwards. Ends that are not written are not given here. * marks the point of attachment. γGlu = O=C(O)[C@H](CCC(=O)[*:2])N[*:1]; Palmitoyl = CCCCCCCCCCCCCCCC(=O)*

In the first test the target is human glucagon receptor (human, UniProt P47871 26-477). Nature of the test: cell-based or functional assay.
human glucagon receptor, sequence (P47871 26-477): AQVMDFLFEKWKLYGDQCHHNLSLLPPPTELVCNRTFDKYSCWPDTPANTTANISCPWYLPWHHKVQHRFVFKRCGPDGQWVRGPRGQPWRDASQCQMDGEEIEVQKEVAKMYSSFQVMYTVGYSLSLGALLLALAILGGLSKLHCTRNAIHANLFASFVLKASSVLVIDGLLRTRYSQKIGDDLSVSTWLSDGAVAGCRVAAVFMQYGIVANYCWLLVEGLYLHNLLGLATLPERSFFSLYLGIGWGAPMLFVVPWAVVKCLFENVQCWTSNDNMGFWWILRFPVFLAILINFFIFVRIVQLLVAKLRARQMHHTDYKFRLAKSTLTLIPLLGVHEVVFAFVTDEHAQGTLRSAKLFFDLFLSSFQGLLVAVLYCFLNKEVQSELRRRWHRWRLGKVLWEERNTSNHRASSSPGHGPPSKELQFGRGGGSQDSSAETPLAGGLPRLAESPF
Take B1: the cAMP EC50 (assay 1) is 0.424 nM.
B2 displayed a cAMP EC50 (assay 1) of 0.00547 nM.
The molecule B3 showed a cAMP EC50 (assay 1) of 1.52 nM.
On to B4, for which the cAMP EC50 (assay 1) was found to be 39.9 nM.
As for B5, the cAMP EC50 (assay 1) stood at 82.1 nM.
Molecule B6 yielded a cAMP EC50 (assay 1) of 3.68 nM.
Regarding B7, the cAMP EC50 (assay 1) stood at 0.00465 nM.

The target of the next test is T1, human glucose-dependent insulinotropic peptide (gastric inhibitory polypeptide) receptor (human). Nature of the test: cell-based or functional assay.
With B1, the cAMP EC50 (assay 1) amounted to 97.2 nM.
In the case of B2, the cAMP EC50 (assay 1) is 82.8 nM and 124 nM.
For B3, the cAMP EC50 (assay 1) stood at 332 nM.
For the molecule B4, the cAMP EC50 (assay 1) is 124 nM.
With B5, the cAMP EC50 (assay 1) was 82.1 nM.
B6 came in with a cAMP EC50 (assay 1) of 96.7 nM.
Still for that read-out and setting: for B7 the value was 47.9 nM.

In the next test the target is human GLP-1 receptor (human, UniProt P43220 24-463). Kind of test: cell-based or functional assay.
human GLP-1 receptor, sequence (P43220 24-463): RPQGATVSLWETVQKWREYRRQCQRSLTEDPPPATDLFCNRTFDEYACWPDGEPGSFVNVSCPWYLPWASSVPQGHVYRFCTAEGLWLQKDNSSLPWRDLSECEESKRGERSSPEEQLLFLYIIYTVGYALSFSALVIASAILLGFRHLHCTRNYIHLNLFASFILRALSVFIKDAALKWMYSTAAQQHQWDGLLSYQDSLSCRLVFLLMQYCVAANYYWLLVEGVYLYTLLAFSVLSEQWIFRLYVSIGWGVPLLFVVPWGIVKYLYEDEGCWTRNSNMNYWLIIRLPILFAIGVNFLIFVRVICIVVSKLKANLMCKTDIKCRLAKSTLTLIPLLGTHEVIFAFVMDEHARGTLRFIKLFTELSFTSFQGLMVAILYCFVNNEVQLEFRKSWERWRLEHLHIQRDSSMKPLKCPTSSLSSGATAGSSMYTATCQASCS
As to B1, the cAMP EC50 (assay 1) was determined as 0.191 nM.
Molecule B2 had a cAMP EC50 (assay 1) of 0.0666 nM.
Still for that read-out and setting: for B3 the value was 1.06 nM; for B4, 0.283 nM.
The molecule B5 showed a cAMP EC50 (assay 1) of 0.244 nM.
Still for that read-out and setting: for B6 the value was 0.195 nM; for B7, 0.0702 nM.

Source of the values: patent publication US20190185537A1 (AstraZeneca / MedImmune, published 2019).
